# Data reported in patent US11994512B2, “Single-cell genomic methods to generate ex vivo cell systems that recapitulate in vivo biology with improved fidelity” (Massachusetts Institute of Technology, priority 2018, dated 2024).
# B1: P48756 (protein, UniProt P48756 1-144, looked up)
# chain: MVALKTCSLLLVLLFLAVGLGEKEEVEFRSHAKFAGPRPRGPRYAEGTFISDYSIAMDKIRQQDFVNWLLAQRGKKSDWKHNITQREARALVLAGQSQGKEDKEAQESSLPKSLSDDDVLRDLLIQELLAWMVDQTELCRLRSQ
# modifications: full-length
# B2: P19467 (protein, UniProt P19467 1-573, looked up)
# chain: MKGFLLLSLSLLLVTVGSSSQASSTTSSSGGTSPPTTVQSQSPGSSSQASTTTSSSGGASPPTTVQSQSPGSSSQASTTTSSSGGASPPTTVQSQSPGSSSQASTTTSSSGGASPPTTVQSQSPGSSSQASTTTSSSGGASPPTTVQSQSPGSSSQASTTTSSSGGASPPTTVQSQSPGSSSQVSTTTSSSGGASPPTTVQSQSPGSSSQPGPTQPSGGASSSTVPSGGSTGPSDLCNPNPCKGTASCVKLHSKHFCLCLEGYYYNSSLSSCVKGTTFPGDISMSVSETANLEDENSVGYQELYNSVTDFFETTFNKTDYGQTVIIKVSTAPSRSARSAMRDATKDVSVSVVNIFGADTKETEKSVSSAIETAIKTSGNVKDYVSINLCDHYGCVGNDSSKCQDILQCTCKPGLDRLNPQVPFCVAVTCSQPCNAEEKEQCLKMDNGVMDCVCMPGYQRANGNRKCEECPFGYSGMNCKDQFQLILTIVGTIAGALILILLIAFIVSARSKNKKKDGEEQRLIEDDFHNLRLRQTGFSNLGADNSIFPKVRTGVPSQTPNPYANQRSMPRPDY
# modifications: full-length
# B3: P43137 (protein, UniProt P43137 1-165, looked up)
# chain: MARNAYFILLSCLIVLSPSQGQEAEEDLPSARISCPEGSNAYSSYCYYFTEDRLTWADADLFCQNMNSGYLVSVLSQAEGNFVASLIKESGTTDANVWTGLHDPKRNRRWHWSSGSLFLYKSWATGSPNSSNRGYCVSLTSNTGYKKWKDDNCDAQYSFVCKFKG
# modifications: full-length
# B4: P31362 (protein, UniProt P31362 1-431, looked up)
# chain: MVNLEPMHTEIKMSGDVADSTDTRSTFGQVEPGNDRNGLDFNRQIKTEDLGDSLQQTLSHRPCHLSQGPTMMPGNQMSGDMASLHPLQQLVLVPGHLQSVSQFLLSQTPPGQQGLQPNLLSFPQQQSTLLLPQTGPGLASQAVGRPGLSGSSLEPHLDAPQHLPGPKHLPGPGGNDEPTDLEELEKFAKTFKQRRIKLGFTQGDVGLAMGKLYGNDFSQTTISRFEALNLSFKNMCKLKPLLEKWLNDAESSPSDPSASTPSSYPTLSEVFGRKRKKRTSIETNIRLTLEKRFQDNPKPSSEEISMIAEQLSMEKEVVRVWFCNRRQKEKRINCPVATPVKPPIYNSRLVSPSGSLGPLSVPPVHSTMPGTVTSSCSPGNNSRPSSPGSGLHASSPTASQNNSKAAMNSSSSSSFNSSGSWYRWNHPTYLH
# modifications: full-length
# B5: P48036 (protein, UniProt P48036 1-319, looked up)
# chain: MATRGTVTDFPGFDGRADAEVLRKAMKGLGTDEDSILNLLTSRSNAQRQEIAQEFKTLFGRDLVDDLKSELTGKFEKLIVAMMKPSRLYDAYELKHALKGAGTDEKVLTEIIASRTPEELSAIKQVYEEEYGSNLEDDVVGDTSGYYQRMLVVLLQANRDPDTAIDDAQVELDAQALFQAGELKWGTDEEKFITIFGTRSVSHLRRVFDKYMTISGFQIEETIDRETSGNLEQLLLAVVKSIRSIPAYLAETLYYAMKGAGTDDHTLIRVVVSRSEIDLFNIRKEFRKNFATSLYSMIKGDTSGDYKKALLLLCGGEDD
# modifications: full-length
# B6: P43883 (protein, UniProt P43883 1-425, looked up)
# chain: MAAAVVDPQQSVVMRVANLPLVSSTYDLVSSAYVSTKDQYPYLRSVCEMAEKGVKTVTSAAMTSALPIIQKLEPQIAVANTYACKGLDRMEERLPILNQPTSEIVASARGAVTGAKDVVTTTMAGAKDSVASTVSGVVDKTKGAVTGSVERTKSVVNGSINTVLGMVQFMNSGVDNAITKSELLVDQYFPLTQEELEMEAKKVEGFDMVQKPSNYERLESLSTKLCSRAYHQALSRVKEAKQKSQETISQLHSTVHLIEFARKNMHSANQKIQGAQDKLYVSWVEWKRSIGYDDTDESHCVEHIESRTLAIARNLTQQLQTTCQTVLVNAQGLPQNIQDQAKHLGVMAGDIYSVFRNAASFKEVSDGVLTSSKGQLQKMKESLDEVMDYFVNNTPLNWLVGPFYPQSTEVNKASLKVQQSEVKAQ
# modifications: full-length
# B7: P23881 (protein, UniProt P23881 1-347, looked up)
# chain: MGLEEELLRIAKKLEKMVSRKKTEGALDLLKKLNSCQMSIQLLQTTRIGVAVNGVRKHCSDKEVVSLAKVLIKNWKRLLDSPRTTKGEREEREKAKKEKGLGCSDWKPEAGLSPPRKKGGGEPKTRRDSVDSRSSTTSSPKRPSLERSNSSKSKVETPTTPSSPSTPTFAPAVCLLAPCYLTGDSVRDKCVEMLSAALKAEDNFKDYGVNCDKLASEIEDHIYQELKSTDMKYRNRVRSRISNLKDPRNPGLRRNVLSGAISPELIAKMTAEEMASDELRELRNAMTQEAIREHQMAKTGGTTTDLLRCSKCKKKNCTYNQVQTRSADEPMTTFVLCNECGNRWKFC
# modifications: full-length
# B8: P48281 (protein, UniProt P48281 1-422, looked up)
# chain: MEAMAASTSLPDPGDFDRNVPRICGVCGDRATGFHFNAMTCEGCKGFFRRSMKRKALFTCPFNGDCRITKDNRRHCQACRLKRCVDIGMMKEFILTDEEVQRKREMIMKRKEEEALKDSLRPKLSEEQQHIIAILLDAHHKTYDPTYADFRDFRPPIRADVSTGSYSPRPTLSFSGDSSSNSDLYTPSLDMMEPASFSTMDLNEEGSDDPSVTLDLSPLSMLPHLADLVSYSIQKVIGFAKMIPGFRDLTSDDQIVLLKSSAIEVIMLRSNQSFTLDDMSWDCGSQDYKYDITDVSRAGHTLELIEPLIKFQVGLKKLNLHEEEHVLLMAICIVSPDRPGVQDAKLVEAIQDRLSNTLQTYIRCRHPPPGSHQLYAKMIQKLADLRSLNEEHSKQYRSLSFQPENSMKLTPLVLEVFGNEIS
# modifications: full-length
# B9: P30681 (protein, UniProt P30681 1-210, looked up)
# chain: MGKGDPNKPRGKMSSYAFFVQTCREEHKKKHPDSSVNFAEFSKKCSERWKTMSAKEKSKFEDLAKSDKARYDREMKNYVPPKGDKKGKKKDPNAPKRPPSAFFLFCSENRPKIKIEHPGLSIGDTAKKLGEMWSEQSAKDKQPYEQKAAKLKEKYEKDIAAYRAKGKSEAGKKGPGRPTGSKKKNEPEDEEEEEEEEEEEDDEEEEEDEE
# modifications: full-length
# B10: P27600 (protein, UniProt P27600 1-379, looked up)
# chain: MSGVVRTLSRCLLPAEAGARERRAGAARDAEREARRRSRDIDALLARERRAVRRLVKILLLGAGESGKSTFLKQMRIIHGREFDQKALLEFRDTIFDNILKGSRVLVDARDKLGIPWQHSENEKHGMFLMAFENKAGLPVEPATFQLYVPALSALWRDSGIREAFSRRSEFQLGESVKYFLDNLDRIGQLNYFPSKQDILLARKATKGIVEHDFVIKKIPFKMVDVGGQRSQRQKWFQCFDGITSILFMVSSSEYDQVLMEDRRTNRLVESMNIFETIVNNKLFFNVSIILFLNKMDLLVEKVKSVSIKKHFPDFKGDPHRLEDVQRYLVQCFDRKRRNRSKPLFHHFTTAIDTENIRFVFHAVKDTILQENLKDIMLQ
# modifications: full-length
# B11: P40338 (protein, UniProt P40338 1-181, looked up)
# chain: MPRKAASPEEAAGEPGPEEMEAGRPRPVLRSVNSREPSQVIFCNRSPRVVLPLWLNFDGEPQPYPILPPGTGRRIHSYRGHLWLFRDAGTHDGLLVNQTELFVPSLNVDGQPIFANITLPVYTLKERCLQVVRSLVKPENYRRLDIVRSLYEDLEDYPSVRKDIQRLSQEHLESQHLEEEP
# modifications: full-length
# System: intracellular proteome of ENR+CD and ENR organoids
# Test: LC-MS/MS TMT proteomics of ENR+CD versus ENR organoids
# Type: cell-based, C57BL/6 mice
# Settings: protein abundance, ENR+CD versus ENR organoids; aggregate of the four sample pairs
row,Molecule,Average logFC
1,B1,1.212
2,B2,1.199
3,B3,−2.852
4,B4,−1.897
5,B5,1.143
6,B6,1.236
7,B7,−1.33
8,B8,−1.442
9,B9,−1.315
10,B10,−2.195
11,B11,−1.533

# Same assay, conditions: protein abundance, ENR+CD versus ENR organoids; replicate M1-1; log2 ratio
row,Molecule,M1-1 Log2 Median Normalized
1,B1,1.21
2,B2,1.437
3,B3,−2.092
4,B4,−1.567
5,B5,1.196
6,B6,1.328
7,B7,−1.331
8,B8,−1.589
9,B9,−1.316
10,B10,−1.957
11,B11,−1.026

# Same assay, conditions: protein abundance, ENR+CD versus ENR organoids; replicate M1-2; log2 ratio
row,Molecule,M1-2 Log2 Median Normalized
1,B1,0.504
2,B2,0.978
3,B3,−3.168
4,B4,−1.082
5,B5,1.332
6,B6,1.122
7,B7,−1.172
8,B8,−1.441
9,B9,−1.094
10,B10,−1.145
11,B11,−1.492

# Same assay, conditions: protein abundance, ENR+CD versus ENR organoids; replicate M2-1; log2 ratio
row,Molecule,M2-1 Log2 Median Normalized
1,B1,1.2845
2,B2,1.3955
3,B3,−4.1035
4,B4,−2.3845
5,B5,1.1055
6,B6,0.9365
7,B7,−1.7775
8,B8,−1.0795
9,B9,−1.2715
10,B10,−2.8495
11,B11,−1.5695

# Same assay, conditions: protein abundance, ENR+CD versus ENR organoids; replicate M2-2; log2 ratio
row,Molecule,M2-2 Log2 Median Normalized
1,B1,1.769
2,B2,0.984
3,B3,−2.045
4,B4,−2.554
5,B5,0.94
6,B6,1.559
7,B7,−1.12
8,B8,−1.499
9,B9,−1.62
10,B10,−2.827
11,B11,−2.043

# Same assay, conditions: up = enriched in ENR+CD, down = enriched in ENR; FDR<0.05 and log fold change cut-off
row,Molecule,change
1,B1,up
2,B2,up
3,B3,down
4,B4,down
5,B5,up
6,B6,up
7,B7,down
8,B8,down
9,B9,down
10,B10,down
11,B11,down
